Test results taken from patent US20190352664A1, “COMPOSITIONS AND METHODS FOR CONTROLLING GENE EXPRESSION” (priority 2017, published 2019).

How the values were obtained:
LUC, GFPER, TBF1-YFP = experiment: Transient expression of uORF-controlled LUC, GFPER and TBF1-YFP; assay type: in vivo, N. benthamiana
LUC reporter = assay type: in vivo, Oryza sativa cultivar ZH11

B1: uORFsTBF1: 5′ leader sequence of TBF1 with two pathogen-responsive upstream open reading frames (nucleic acid)
DNA: TCTAGAAACAGCATCCGTTTTTATAATTTAATTTTCTTACAAAGGTAGGACCAACATTTGTGATCTATAAATCTTCCTACTACGTTATATAGAGACCCTTCGACATAACACTTAACTCGTTTATATATTTGTTTTACTTGTTTTGCACATACACACAAAAATAAAAAAGACTTTATATTTATTTACTTTTTAATCACACGGATTAGCTCCGGCGAAGTATGGTCGTCGTCTTCATCTTCTTCCTCCATCATCAGATTTTTCCTTAAATGGAAGAAACCAAACGAAACTCCGATCTTCTCCGTTCTCGTGTTTTCCTCTCTGGCTTTTATTGCTGGGATTGGGAATTTCTCACCGCTCTCTTGCTTTTTAGTTGCTGATTCTTTTTCCTTCGACTTTCTATTTCCAATCTTTCTTCTTCTCTTTGTGTATTAGATTATTTTTAGTTTTATTTTTCTGTGGTAAAATAAAAAAAGTTCGCCGGAG
B1 was tested, and the “suppression of cytosol-synthesized LUC and ER-synthesized GFPER” value (LUC, GFPER, TBF1-YFP; 35S promoter, vs mutant uorfs (ATG to CTG)) was “largely suppress”, the mRNA levels (LUC, GFPER, TBF1-YFP; LUC and GFPER) was “without significantly affecting mRNA levels” and the “cell death induced by overexpression of TBF1 (TBF1-YFP)” value (LUC, GFPER, TBF1-YFP; vs 35S:uorfsTBF1-TBF1-YFP) was “tight enough to prevent cell death”. The “translation of the LUC reporter in rice” value (LUC reporter; 35S:uORFsTBF1-LUC vs 35S:uorfsTBF1-LUC) was “could suppress translation of the reporter in rice” and the “LUC mRNA levels in rice” value (LUC reporter; in vivo) was “without significantly influencing mRNA levels”.
